Here are results for one molecule from publication PMC11828871, “Structural basis of anticancer drug recognition and amino acid transport by LAT1” (Nature Communications, 2025).

One test addresses T1, CD98hc (4F2hc; SLC3A2) (human, UniProt P08195).
T1 construct: CD98hc (4F2hc; SLC3A2), human, single membrane-spanning protein; The complex was purified by GFP-nanotrap and a FLAG-tag purification step was skipped; The TMD-only models hold only TM1' of CD98hc
Nature of the test: cryo-EM structure; LAT1–CD98hc in lipid nanodiscs (POPC:POPG:cholesterol 2:2:1, MSP2N2) complexed with Fab170, gel filtration; SEC buffer 20 mM Tris-HCl pH 9.0, 150 mM NaCl; with JPH203, L-Phe, melphalan, BCH, T3 or no ligand. The note with it: both partners purified. (In general: In gel filtration, larger molecules generally elute earlier.)

Test [1] has as its target T2, LAT1–CD98hc heterodimeric complex (human, UniProt Q01650;P08195).
T2 construct: LAT1 (SLC7A5), human; as the chain of m1; CD98hc (4F2hc; SLC3A2), human; as the chain of m2
Described as above. The note with it: both partners purified.

T1 sequence (P08195 102-630): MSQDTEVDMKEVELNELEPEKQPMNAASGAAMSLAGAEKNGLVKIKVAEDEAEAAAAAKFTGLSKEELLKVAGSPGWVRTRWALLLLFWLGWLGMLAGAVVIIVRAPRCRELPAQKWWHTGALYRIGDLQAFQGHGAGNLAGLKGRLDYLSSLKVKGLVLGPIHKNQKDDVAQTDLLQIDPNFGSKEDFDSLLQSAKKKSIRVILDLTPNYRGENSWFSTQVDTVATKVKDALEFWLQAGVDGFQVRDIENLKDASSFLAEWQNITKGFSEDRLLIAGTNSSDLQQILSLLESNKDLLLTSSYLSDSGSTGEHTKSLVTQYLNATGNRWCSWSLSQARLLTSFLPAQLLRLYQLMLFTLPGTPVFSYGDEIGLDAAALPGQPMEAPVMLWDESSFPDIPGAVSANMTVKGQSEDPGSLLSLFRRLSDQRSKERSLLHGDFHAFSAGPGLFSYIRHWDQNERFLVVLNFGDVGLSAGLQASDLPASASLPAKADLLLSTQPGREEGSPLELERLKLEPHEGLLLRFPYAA
T2 sequence (Q01650 whole entry, chain 1 of 2): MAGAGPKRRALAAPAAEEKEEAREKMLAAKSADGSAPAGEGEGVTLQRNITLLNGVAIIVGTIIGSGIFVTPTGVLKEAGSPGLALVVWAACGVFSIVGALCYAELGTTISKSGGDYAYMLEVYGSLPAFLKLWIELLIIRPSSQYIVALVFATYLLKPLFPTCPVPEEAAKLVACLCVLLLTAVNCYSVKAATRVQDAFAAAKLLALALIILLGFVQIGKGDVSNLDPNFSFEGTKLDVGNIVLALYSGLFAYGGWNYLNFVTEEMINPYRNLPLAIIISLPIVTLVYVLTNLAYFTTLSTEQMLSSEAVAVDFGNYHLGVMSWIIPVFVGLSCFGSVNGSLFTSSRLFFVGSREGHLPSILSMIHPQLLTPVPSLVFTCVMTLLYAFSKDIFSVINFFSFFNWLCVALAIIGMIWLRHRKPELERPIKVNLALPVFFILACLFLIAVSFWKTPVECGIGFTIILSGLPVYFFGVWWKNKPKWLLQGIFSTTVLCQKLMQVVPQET
T2 sequence (P08195 102-630, chain 2 of 2): as the sequence (P08195 102-630) above

B1: Fab fragment from clone 170 (Fab170) (Fab, V domains shown)
VH: EVQLQQSGAELVKPGASVNLSCKASGYTFTNYWMHWVRLRPGQGLEWIGEIDPSDSYSYYSQNFKGKATLTVDQSSNTAYLQLTSLTSEDSAVYYCARGRQTYYPWFPYWGQGTLVTVSA
VL: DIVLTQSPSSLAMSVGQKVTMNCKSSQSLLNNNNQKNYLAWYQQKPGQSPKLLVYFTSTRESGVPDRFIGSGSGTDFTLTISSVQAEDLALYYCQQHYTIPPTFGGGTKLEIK
notes: Mouse monoclonal antibody raised against liposomes with purified LAT1–CD98hc; source: mouse hybridoma culture supernatant; IgG purified by Protein G column, digested by papain, Fab further purified on Protein A column
Regarding B1, the binding result (with CD98hc (4F2hc; SLC3A2); in test [1]) was “binds” in each case.
